# Test results: US20210045419A1 (UNIVERSITY OF MANITOBA, published 2021)
# T1: bitter taste receptor T2R4 (UniProt Q9NYW5 1-299, limits assumed)
# T1 sequence (looked up): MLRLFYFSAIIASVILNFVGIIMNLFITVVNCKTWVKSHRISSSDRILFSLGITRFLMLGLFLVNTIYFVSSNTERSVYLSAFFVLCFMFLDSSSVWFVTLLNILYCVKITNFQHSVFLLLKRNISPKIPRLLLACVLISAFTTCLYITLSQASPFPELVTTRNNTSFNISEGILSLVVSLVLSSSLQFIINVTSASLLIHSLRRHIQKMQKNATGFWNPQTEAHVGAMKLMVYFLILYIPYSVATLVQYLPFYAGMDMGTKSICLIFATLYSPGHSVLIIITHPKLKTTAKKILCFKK
# Molecular target: T1, bitter taste receptor T2R4
# Experiment: cell-based or functional assay
binder,measurement,value
AGDDAPRAVF [AGDDAPRAVF (SEQ ID No:5)],"IC50, peptide and quinine (1 mM) competition calcium mobilization assay on T2R4-expressing HEK293T cells",85 µM
